Data published in US20070218069A1 (published 2007).
Numbering of substitutions follows the chain as printed. Like-named read-outs stand apart in the source and are kept apart here. One block for each binder: values may come before it.

Tests used:
K48-linked diubiquitin [1] = biological target: T1, K48-linked diubiquitin (human, UniProt P0CG48 1-76, isopeptide bond between Lys48 of one ubiquitin and the C-terminal Gly of the other); assay: SPR Biacore, antigen immobilized
T1 construct: Boston Biochem

K48-linked diubiquitin [2] = biological target: T1, K48-linked diubiquitin; assay: SPR Biacore, antigen immobilized; remark: listed apart in the source

Kd (K48-linked diubiquitin [1]): 12.7 nM
koff (K48-linked diubiquitin [1]): 0.00696 s⁻¹
kon (K48-linked diubiquitin [1]): 546000 M⁻¹ s⁻¹
B1: Fab apu02 (Fab, V domains shown)
VH: EVQLVESGGGLVQPGGSLRLSCAASGFNVSYSYMHWVRQAPGKGLEWVASISSYYSYTSYADSVKGRFTISADTSKNTAYLQMNSLRAEDTAVYYCARSYSYYSAIDYWGQGTLVTVSS
VL: DIQMTQSPSSLSASVGDRVTITCRASQSVSSAVAWYQQKPGKAPKLLIYSASSLYSGVPSRFSGSRSGTDFTLTISSLQPEDFATYYCQQSSYSSLFTFGQGTKVEIK

Kd (K48-linked diubiquitin [2]): 23.5 nM
koff (K48-linked diubiquitin [2]): 0.0149 s⁻¹
kon (K48-linked diubiquitin [2]): 633000 M⁻¹ s⁻¹
B2: Fab apu2.01 (Fab, V domains shown)
VH: B1 VH with V29I, Y33S, S52Y, Y103S, S104E, I106L
VL: B1 VL with F97I

Kd (K48-linked diubiquitin [2]): 5.76 nM
koff (K48-linked diubiquitin [2]): 0.00721 s⁻¹
kon (K48-linked diubiquitin [2]): 1.25e+06 M⁻¹ s⁻¹
B3: Fab apu2.08 (Fab, V domains shown)
VH: B1 VH with V29I, Y33S, S52Y, Y103S, S104V, A105G, I106M
VL: B1 VL with F97I

Kd (K48-linked diubiquitin [2]): 15.1 nM
koff (K48-linked diubiquitin [2]): 0.00939 s⁻¹
kon (K48-linked diubiquitin [2]): 622000 M⁻¹ s⁻¹
B4: Fab apu2.04 (Fab, V domains shown)
VH: B1 VH with V29I, Y33S, S52Y, Y103S, S104F, A105G, I106M
VL: B1 VL with F97I

Kd (K48-linked diubiquitin [2]): 1.21 nM
koff (K48-linked diubiquitin [2]): 0.00399 s⁻¹
kon (K48-linked diubiquitin [2]): 3.28e+06 M⁻¹ s⁻¹
B5: Fab apu2.10 (Fab, V domains shown)
VH: B1 VH with V29I, Y33S, S52Y, Y103F, S104L, I106M
VL: B1 VL with F97I

Kd (K48-linked diubiquitin [2]): 6.69 nM
koff (K48-linked diubiquitin [2]): 0.00478 s⁻¹
kon (K48-linked diubiquitin [2]): 715000 M⁻¹ s⁻¹
B6: Fab apu2.09 (Fab, V domains shown)
VH: B1 VH with V29I, Y33S, S52Y, Y103H, S104V, I106F
VL: B1 VL with F97I

Kd (K48-linked diubiquitin [2]): 1.87 nM
koff (K48-linked diubiquitin [2]): 0.0024 s⁻¹
kon (K48-linked diubiquitin [2]): 1.28e+06 M⁻¹ s⁻¹
B7: Fab apu2.06 (Fab, V domains shown)
VH: B1 VH with V29I, Y33S, S52Y, S99G, Y102W, Y103F, S104N
VL: B1 VL with F97I

Kd (K48-linked diubiquitin [2]): 5.06 nM
koff (K48-linked diubiquitin [2]): 0.00609 s⁻¹
kon (K48-linked diubiquitin [2]): 1.2e+06 M⁻¹ s⁻¹
B8: Fab apu2.05 (Fab, V domains shown)
VH: B1 VH with V29I, Y33S, S52Y, Y103R, S104M, I106F
VL: B1 VL with F97I

Kd (K48-linked diubiquitin [2]): 1.18 nM
koff (K48-linked diubiquitin [2]): 0.00318 s⁻¹
kon (K48-linked diubiquitin [2]): 2.7e+06 M⁻¹ s⁻¹
B9: Fab apu2.07 (Fab, V domains shown)
VH: B1 VH with V29I, Y33S, S52Y, Y103H, S104L, A105G, I106M
VL: B1 VL with F97I

Kd (K48-linked diubiquitin [1]): 19.6 nM
koff (K48-linked diubiquitin [1]): 0.0177 s⁻¹
kon (K48-linked diubiquitin [1]): 904000 M⁻¹ s⁻¹
B10: Fab apu11 (Fab, V domains shown)
VH: EVQLVESGGGLVQPGGSLRLSCAASGFNVSYYYIHWVRQAPGKGLEWVASISSYYGYTSYADSVKGRFTISADTSKNTAYLQMNSLRAEDTAVYYCARENYWWAIDYWGQGTLVTVSS
VL: B1 VL with S92Y, S94Y, S95Y, L96P, F97I

Kd (K48-linked diubiquitin [1]): 9.49 nM
koff (K48-linked diubiquitin [1]): 0.00993 s⁻¹
kon (K48-linked diubiquitin [1]): 1.05e+06 M⁻¹ s⁻¹
B11: Fab apu07 (Fab, V domains shown)
VH: EVQLVESGGGLVQPGGSLRLSCAASGFNLSYSYIHWVRQAPGKGLEWVASISSYYGSTSYADSVKGRFTISADTSKNTAYLQMNSLRAEDTAVYYCARESFYYSPAFDYWGQGTLVTVSS
VL: B1 VL with S92Y, S94Y

Kd (K48-linked diubiquitin [2]): 9.16 nM
koff (K48-linked diubiquitin [2]): 0.0101 s⁻¹
kon (K48-linked diubiquitin [2]): 1.11e+06 M⁻¹ s⁻¹
B12: Fab apu2.02 (Fab, V domains shown)
VH: B1 VH with V29I, S30F, S32G, Y33G, M34I, S52Y, I106M
VL: B1 VL with F97I

Kd (K48-linked diubiquitin [2]): 3.07 nM
koff (K48-linked diubiquitin [2]): 0.00266 s⁻¹
kon (K48-linked diubiquitin [2]): 867000 M⁻¹ s⁻¹
B13: Fab apu2.03 (Fab, V domains shown)
VH: B1 VH with V29I, Y33S, S52Y, Y103S, S104L, I106F
VL: B1 VL with F97I

Kd (K48-linked diubiquitin [1]): 139 nM
koff (K48-linked diubiquitin [1]): 0.016 s⁻¹
kon (K48-linked diubiquitin [1]): 115000 M⁻¹ s⁻¹
B14: Fab apu13 (Fab, V domains shown)
VH: B1 VH with S32Y, Y33S, M34I, S52Y, S53P, Y103S, S104Y, A105G, I106L
VL: DIQMTQSPSSLSASVGDRVTITCRASQSVSSAVAWYQQKPGKAPKLLIYSASSLYSGVPSRFSGSRSGTDFTLTISSLQPEDFATYYCQQYSSSYYPFTFGQGTKVEIK
